Experimental findings from paper PMC2148051, “Crystal structures of Leptospira interrogans FAD-containing ferredoxin-NADP^+ reductase and its complex with NADP^+” (BMC Structural Biology, 2007) are described below.

Data set [1] concerns NC(=O)C1=CN([C@@H]2O[C@H](COP(=O)(O)OP(=O)(O)OC[C@H]3O[C@@H](n4cnc5c(N)ncnc54)[C@H](OP(=O)(O)O)[C@@H]3O)[C@@H](O)[C@H]2O)C=CC1. Put plainly: purified protein. The note with it: 1 mM potassium ferricyanide, NADPH regenerated with glucose-6-phosphate dehydrogenase, 50 mM Tris-HCl, pH 8, 30°C.
The target in data set [2] is T1, P. sativum FNR (Lathyrus oleraceus, UniProt P10933).
T1 construct: gene PETH; plastidic enzyme
T1 sequence (P10933 53-360): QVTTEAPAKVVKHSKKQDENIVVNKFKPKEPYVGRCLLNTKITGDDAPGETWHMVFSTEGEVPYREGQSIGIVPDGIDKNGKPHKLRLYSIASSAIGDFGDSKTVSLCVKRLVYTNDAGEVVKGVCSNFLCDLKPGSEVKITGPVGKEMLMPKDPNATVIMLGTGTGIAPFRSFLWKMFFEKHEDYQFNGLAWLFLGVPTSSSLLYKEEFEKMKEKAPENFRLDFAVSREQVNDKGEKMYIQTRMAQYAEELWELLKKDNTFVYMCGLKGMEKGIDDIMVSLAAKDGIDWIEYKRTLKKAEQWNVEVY
Kind of data set: difference absorption spectroscopy titration. The following applies: read-out: Kd (μM, NADP^+). The data set is classed as binding. An excerpt:
difference absorption spectroscopy titration on P. sativum FNR

Data set [3] concerns the target T2, LepFNR (Leptospira interrogans, UniProt Q8EY89).
T2 construct: gene LA_4327; expressed in E. coli (pET32JO-LepFNR) as thioredoxin fusion, thioredoxin removed with thrombin; FAD holoenzyme; C-terminal residue Tyr314
Kind of data set: difference absorption spectroscopy titration. The data set is classed as binding. An excerpt: difference absorption spectroscopy titration on LepFNR

The target of data set [4] is T2, LepFNR. Kind of data set: X-ray crystal structure, […] Å. The data set is classed as binding. The note with it: noncovalently bound prosthetic group, extended conformation.
Substrate in data set [5]: NC(=O)C1=CN([C@@H]2O[C@H](COP(=O)(O)OP(=O)(O)OC[C@H]3O[C@@H](n4cnc5c(N)ncnc54)[C@H](OP(=O)(O)O)[C@@H]3O)[C@@H](O)[C@H]2O)C=CC1
Kind of data set: purified protein. The class given is biochemical, Lathyrus oleraceus. The note with it: 1 mM potassium ferricyanide, NADPH regenerated with glucose-6-phosphate dehydrogenase, 50 mM Tris-HCl, pH 8, 30°C.

T2 sequence (Q8EY89 entry or part of it): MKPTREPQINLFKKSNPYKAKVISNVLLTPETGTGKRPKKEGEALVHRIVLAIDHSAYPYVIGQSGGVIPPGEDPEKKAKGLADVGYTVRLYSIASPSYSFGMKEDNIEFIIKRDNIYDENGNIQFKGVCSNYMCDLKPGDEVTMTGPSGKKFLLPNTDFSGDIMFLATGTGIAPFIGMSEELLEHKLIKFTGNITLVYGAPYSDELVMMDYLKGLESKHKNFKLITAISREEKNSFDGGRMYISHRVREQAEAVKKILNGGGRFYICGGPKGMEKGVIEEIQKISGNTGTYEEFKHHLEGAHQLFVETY

With “LepFNR (Leptospira interrogans serovar Lai str. 56601)”, in data set [1], the Km turned out to be 19.5 ± 1.7 µM, the kcat came out at 258 ± 13 s⁻¹ and the catalytic efficiency (kcat/Km) came out at 1.32e+07 M⁻¹ s⁻¹.

`NC(=O)c1ccc[n+]([C@@H]2O[C@H](COP(=O)(O)OP(=O)(O)OC[C@H]3O[C@@H](n4cnc5c(N)ncnc54)[C@H](OP(=O)(O)O)[C@@H]3O)[C@@H](O)[C@H]2O)c1` [NADP^+]: the dissociation constant Kd was found to be 32 ± 2 µM in data set [2] and 43 ± 3 µM in data set [3].

On to `Cc1cc2nc3c(=O)[nH]c(=O)nc-3n(C[C@H](O)[C@H](O)[C@H](O)COP(=O)(O)OP(=O)(O)OC[C@H]3O[C@@H](n4cnc5c(N)ncnc54)[C@H](O)[C@@H]3O)c2cc1C` [FAD], for which the “X-ray crystal structure, 2.43 Å” value in data set [4] was “LepFNR accommodates the FAD molecule in an extended conformation between the two enzyme domains”.

B1: P. sativum FNR (Lathyrus oleraceus) (protein)
chain: T1 sequence (P10933 53-360)
notes: plastidic enzyme
B1: in data set [5], the Km was 19.0 ± 1.6 µM, the kcat worked out at 324 ± 16 s⁻¹ and the kcat/Km turned out to be 1.71e+07 M⁻¹ s⁻¹.

Usually Km stands for the concentration of substrate that gives half-maximal velocity. Broadly, the kcat is the maximal rate divided by the concentration of active sites. The term kcat/Km denotes the turnover number divided by the Michaelis constant. What is called Kd is the equilibrium constant for the complex coming apart.
